Test: yeast display, Sf9 membrane polyspecificity reagent, FACS + sequencing; frameworks hold sequencing errors
How it was run: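 A synthetic nanobody library was expressed on Saccharomyces cerevisiae BJ5465 by galactose induction for 36–48 hours. The library was stained for 1 hour at 4 °C with 10% biotinylated, detergent-solubilized Sf9 membrane reagent and enriched with streptavidin microbeads before FACS. Low and high (top ~1%) gates were set on anti-HA fluorescence for expression and streptavidin fluorescence for reagent binding, and each polyreactivity label reflects the gate of origin.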

Row | Sequence | polyreactivity (PSR sort gate)
1 | QVQLVESGGGLVQAGGSLRLSCSATGRIFVLYDMGWYRQAPGKERELVAGISGSGGRTYYADSVKGRFTISRDNAKNTVYLQMNSLKAEDTAVYYFNALGYYWYRPYVNSNGGYWGQGTLVTVSS | high polyreactivity
2 | QVQLVESGGGLVQAGGSLRLSCSDSGSTFWLNAMGWYRQPPGKEREYVAAITWSSGSTYYADSVKGSFTISRDNAKNTVYLQMNSLKPEDTAVYYCNADYYFTSYEYEYWGQGTQVTVSS | low polyreactivity
3 | QVQLVESGGGLVQAGGSLRLSCSSSGRIFLNSMGWYRQAPGKEREFVAAITRSADSTYYADSVKGRFTISRDNAKNTVYLQMNSLKPEDTAVYYCNKPFPYYPDGPNGYDYWGHGTQVTVSS | low polyreactivity
4 | QVQLVESGGGLVQAGGSLRLSCTASGTIVPVYAMGWYRQAPGKERELVADITYTTGSTYYAVSVKGRFTISRENAKNSVYLQMNSLKPEDTAVYYCAKDFGFQSDSWGQGTQVTVSS | low polyreactivity
5 | QVQLVESGGGLVQAGGSLRLSCVASGNIFVFYLMGWYRQAPGKERELVASISSTGNTYYADSVKGRFTISRDNAKNTVYLQMNSLKPEDTAVYYCAADSHQNVSGWLRWPRMDYWGQGTQVTVSS | low polyreactivity
6 | QVQLVESGGGLVQAGGSLRLSCVASGRTFFRYAMGWYRQAPGKERELVAVITRGGSTYYADSVKGRFTISRDNAKNTVYLQMNSLKPEDTAVYYCNADGRVQRKYDYWGQGTQVTVSS | high polyreactivity
7 | QVQLVESGGGLVQAGGSLRLSCVASGRTLNYNVMGWYRQAPGKERELVAAISWSGGSTYADSVKGRFTISRDNAKNTVYLQMNSLKPEDTAVYYCNKRFTTRVNRRPVYYWGQGTQVTVSS | low polyreactivity
8 | QVQLVESGGGLVQAGGSLRLSCVASGSIFKQYAMGWYRQAPGKERELVAGISKTGGRTYYADSVKGRFTISRDNAKNTVYLQMNSLKPEDTAVYYCAAYFRSDYGYWGQGTQVTVSS | high polyreactivity
9 | QVQLVESGGGLVQAGGSLRLSCVASGSIFRGNAMGWYRQAPGKERELVASISKGGGSTYYADSVKGRFIISRDNAKNTVYLQIHSLKPEDTAVYYCYKDYDRRDFYYWGLGTQVTVSS | low polyreactivity
10 | QVQLVESGGGLVQAGGSLRLSFAASGFIFWNYPMGWYRQAPGKERELVAAISKRGGSTYYADSVKGRFTISRDNAKHNVYLQMNSLKPEDTAVYYCNAGRTYTALNGDYWGQGTQVTVSS | high polyreactivity
11 | QVQLVESGGGLVQAGGSLRLSFAASGIIFSHNVMGWYRQAPGKERELVAAITYSGGSTYYADSVKGRFTISRDNAKNTVYLLMNSLKPEDTAVYYCNALGVSRRDYDYWGQGTQVTVSS | low polyreactivity
12 | QVQLVESGGGLVQAGGSLRLSFAASGITFDSYAKGWYRQAPGKERELVATISRSGTTTYYADSVKGRFTISRDNAKNTVYLQMNSLKPEDTAVYYCNTLRAYWTYHFYGAVRDGYDYWGQGTQVTVSS | low polyreactivity
13 | QVQLVESGGGLVQAGGSLRLSFAASGITFPYYAMGWYRQAPGKEREFVAAISSSGGSTYYADSVKGRFTISRDNAKKTVYLKMHCLKAEDTEVYYCAAGVYGRSSYSKPVLYEYWGQGTQVTVSS | high polyreactivity
14 | QVQLVESGGGLVQAGGSLRLSFAASGLIFSYYAMVWYRQAPGKERELVAAISSSGGSTYYADSVKGRFTISRDYAKNTVYLQMNSLKPEDTAVYYCARKLTRRFYQYDYWGQGTQVTVSS | high polyreactivity
15 | QVQLVESGGGLVQAGGSLRLSFAASGRIFLRYAMVWYRHAPGKERELVAAISSRGGRTYYADSVKGRFTISRDNAKNTVYLQMNSLKPEDTAVYYCAAEGYYVTPFDYWGQGTQVTVSS | high polyreactivity
16 | QVQLVESGGGLVQAGGSLRLSFAASGRIFTYYAMGWYRQAPGKERELVASISRSGGNTYYADSVKGRFTISRDNAKNTVYLQMNSLKPEDTAVYYCAAVYSRLDYWGQGTQVTVSS | high polyreactivity
17 | QVQLVESGGGLVQAGGSLRLSFAASGRTFGRYAMGWYRPATGKERELVATISSRGGNTYYADSVKGRFTISRDNAQKTVYLEMNSLKAEDTAVYYCAAQTYKWYDWGQGTQVTVSS | high polyreactivity
18 | QVQLVESGGGLVQAGGSLRLSFAASGRTFTWNVMGWYRQAPGKERELVAAITTDDRTYADSVKGRFTISRDNAKNTVYLQMNSLKPEDTAVYYCATVVAWSSRPVGEDYWGQGTQVTVSS | low polyreactivity
19 | QVQLVESGGGLVQAGGSLRLSFAASGSIFPVYAMGWYKQAPGKERELVAAITTAGRTYYADSVKGRFTISRDNAKNTVYLQMNSLKPEDTAVYYCNARSRKVLTVDGGYWGQGTQVTVSS | high polyreactivity
20 | QVQLVESGGGLVQAGGSLRLSFAASGSIFYYYVMGWYRQAPGKERELVASIRAGGDNTYYADSVKGRFTISRDSAKNTVYLQMNRLKPEDSEVYYCAKSRGRRRLYPHRYGHDYWGQGTQVTVSS | low polyreactivity
21 | QVQLVESGGGLVQAGGSLRLSFAASGSTFSRNTMGWYRQAPGKERELVAAISKSGGRTYYADSVKGRFTISRDNAKNTVYLQINSLKPEDSAVYYCNAAVYAYASDYWGQGTQVTVSS | high polyreactivity
22 | QVQLVESGGGLVQAGGSLRLSFAASGSTFTPNVMGWYRQAPGKERELVAAINSSGGSTFYADSVKGRFTISRDNANNTVYLQMNSLKPEDTAVYYCAASWHTPTVYDEYYYWGQGTQVNVSS | low polyreactivity

Row | Sequence | polyreactivity (PSR sort gate)
23 | QVQLVESGGGLVQAGGSLRLSFAASGSTFYYHAMGWYRQAPGKERELVAAIRSTGSTNYADSVKGRFTISRDNAKNTVYLQMNSLKPEDTAVYYCAARIRRTRGYNYWGQGTQVTVSS | high polyreactivity
24 | QVQLVESGGGLVQAGGSLRLSFDASGLIFWGYAMGWYRQAPGKERELVAAISSSCGSTYYADSVKGRFTISRDNAKNTVYLEMNSLQPEDTAVYYCNADYTYYPGYDFWGQGTQVTVSS | low polyreactivity
25 | QVQLVESGGGLVQAGGSLRLSGAASGFIFGSYAMGWYRQAPGKERELVAAISRSGGRTYYADSVKGRFTISRDNAKNTVYLQMNSLKPEYTAVYYCNAVGYGVFFRSSDRTKFDYWGQGTQVTVSS | high polyreactivity
26 | QVQLVESGGGLVQAGGSLRLSGAASGFIFSYYAMGWYRQAPGKERELVAAITSGGSTNYADSVKGRFTISRDNAKNTVYLQMNSLKPEDTAVYYCNALYHWGYPHEYNYWGQGTQVTVSS | low polyreactivity
27 | QVQLVESGGGLVQAGGSLRLSGAASGRIFGTYDMGWYRQAPGKERELVAAINRSAGSTYYADSVKGRITISRDNAKNTVYLQMNSLKPEDTAVYYCAKQPLLFQYLEYDYWGQGTQVTVSS | low polyreactivity
28 | QVQLVESGGGLVQAGGSLRLSGAASGRTFGYYAMGWYRQAPGKERELVAAISRGGSTYYADSVKGRFTISRDNAKNTVYLQMNSPKPEDTAVYYCAADYWGYGPEMGYWGQGTQVTVSS | low polyreactivity
29 | QVQLVESGGGLVQAGGSLRLSGAASGSTCYYGMGWYRQAPGKYRELVAAISSRGGTPYYADSVKGRFTISRDNAKNTVYLQMTSLKPEDTAVDDCAAPVPYYVPRRNEGDYWGQGTQGTVSS | low polyreactivity
30 | QVQLVESGGGLVQAGGSLRLSSAAAGSTFGRYAMGWYRQAPGKEREFVAAITQGGTNTYYADSVKGRFTISRDNAKNTVYLQMNSLKPEDTAVYYCARVRRYPLRYNYWGQGTQVTVSS | high polyreactivity
31 | QVQLVESGGGLVQAGGSLRLSSAASGFIFDFYTMGWYRQAPGKERELVAAITWSGDSTYYADSVKGRFTISRDNAKNTVYLQMNSLKPEDTAVYYCASDLSYNPGYDYWGQGTQVTVSS | low polyreactivity
32 | QVQLVESGGGLVQAGGSLRLSSAASGFIFFCYTMGWYRQARGKERELVAAISSTGARTYYADSVKGSFTISRDNAKNTVYLQMNSLKPEDTAFYYCAARLSYQGRGYRFWGQGTQVTVSS | high polyreactivity
33 | QVQLVESGGGLVQAGGSLRLSSAASGFIFPAYAMGWYRQAPGKDRELVAAISKSGGRTYYADSVKGRFTISRDNAKNTVYLQMNSLKPEDTAVYYCNKDRYPREQYTWKYAWGYDYWGQGTQVTVSS | high polyreactivity
34 | QVQLVESGGGLVQAGGSLRLSSAASGFILNRNAMGWYRQAPGKVRELVAAISKSGGSTYYADSVKGRFTISRDNAKNTVYLQMNRLKPEDTAVYYCAAYTYLGRYEARRDYWGQGTQVTVSS | high polyreactivity
35 | QVQLVESGGGLVQAGGSLRLSSAASGFILRWYAMGWYRQAPGKERELVAAISWSGGSTYYADSVKGRFTISRDNAKNTVYLQMNSLKPEDTAVYYCNAVNYRNKYDYWGQGTQVTVSS | high polyreactivity
36 | QVQLVESGGGLVQAGGSLRLSSAASGFTFDYYAMGWYRQAPGKERELVAAISTSGGSTYYADSVKGRFTISRDNAKNTVYLQMNSLKPEDTAVYYCNVVFYEYSSVSYDYWGQGTQVTVSS | high polyreactivity
37 | QVQLVESGGGLVQAGGSLRLSSAASGFTFKGNALGWYRQAPGKERELVATITQSAGSTYYADSVKGRFTISRDNAKNTVYLQMNSLKPEDTAVYYCNADPITLYYYSWYNYWGQGTQGTVSS | low polyreactivity
38 | QVQLVESGGGLVQAGGSLRLSSAASGFTFLYNAMGWYRQAPGKERELVASIRTGTGTYYADSVKGRFTISRDNAKNNVYLQMISLKPEDTAVYYCAADYRYKSQWWYRRFDYWGQGTQVNVSS | high polyreactivity
39 | QVQLVESGGGLVQAGGSLRLSSAASGFTFRRYAMGWYRQAPGKERELVAAITNSAGSTYYSDSVKGRFTISRDNAKNTVYLQKNSLKPEDTAVYYCVALRSAGAYDYWGQGTQVTVSS | low polyreactivity
40 | QVQLVESGGGLVQAGGSLRLSSAASGFTFYLNALGGYRQAPGKERELVAAISSSGGITYYADSVKGRFTISRDNAKNTVYLQMNSLKPEYTAVYYCAAYWPKYRYEADRDYWGQGTQVTVSS | low polyreactivity
41 | QVQLVESGGGLVQAGGSLRLSSAASGFTLIPNGMGWYRQAPGKEREFVAAISGTGGRTSYADSVKGRFTISRDNAKNTVYLQMHSLKPEDTAVYYCNARVLVYSERAYKYYLLYDYWGQGTQVTVSS | high polyreactivity
42 | QVQLVESGGGLVQAGGSLRLSSAASGFTLYRNAMGWNRQAPGKEREFVASITRSGGSTSYADSVKGRFTISRDNAKNTVYLQMNSLKPEDTAVYYCAAAYEYYRWPSEYNYWGQGTQVTVSS | low polyreactivity
43 | QVQLVESGGGLVQAGGSLRLSSAASGGIFFYNTMGWYRQAPGKERELVAAITTNGDSTYYADSVKGRFTISRDTAKYTVYLQMNSLKPEDTAVYYCAAGRRWARWLFPSRYDYWGQGTQVTVSS | low polyreactivity

From the nanobody polyreactivity screen of Harvey et al. (2022)
